From PMC12130304

Biological target: C-terminal, Twin-Strep-HA-tagged AVRA13-1 (Blumeria hordei)
Test: SEC + other: negative-stain TEM

N-terminal, GST-tagged MLA13^K98E/K100E (receptor)
stoichiometry N: 1
